Experimental data reported in patent US20240132625A1.

Tests used:
[1] = target: HER2 ectodomain (biotinylated Her2/ERBB2, Sino Biological) (human) (UniProt P04626); experiment: BLI, HER2 ectodomain on tip; effective KD
[2] = target: HER2 ectodomain (biotinylated Her2/ERBB2, Sino Biological) (human) (UniProt P04626); experiment: BLI, antigen on streptavidin tip, 1:1 fit
[3] = target: CD20 immobilized on a sensor tip (UniProt P11836); experiment: BLI, CD20 on tip
[4] = target: CD20 immobilized on a sensor tip (UniProt P11836); experiment: BLI, human CD20 immobilized on the sensor tip, antibody in half dilution from 50 nM, 1:1 fit
[5] = target: HER2 ectodomain (biotinylated Her2/ERBB2, Sino Biological) (human) (UniProt P04626); experiment: BLI, HER2 ectodomain immobilized on the sensor tip, antibody in half dilution from 250 nM, 1:1 fit
[6] = target: HER2 ectodomain (biotinylated Her2/ERBB2, Sino Biological) (human) (UniProt P04626); experiment: BLI, HER2 ectodomain immobilized on the sensor tip, antibody in half dilution from 500 nM, 1:1 fit
[7] = target: HER2 ectodomain (biotinylated Her2/ERBB2, Sino Biological) (human) (UniProt P04626); experiment: BLI, […], antibody 3.1-[…], 1:1 fit
[8] = target: HER2 ectodomain (biotinylated Her2/ERBB2, Sino Biological) (human) (UniProt P04626); experiment: BLI, antigen on streptavidin tip; below the instrument's limit
[9] = target: HER2 ectodomain (biotinylated Her2/ERBB2, Sino Biological) (human) (UniProt P04626); experiment: BLI, HER2 ectodomain on tip
[10] = target: HER2 ectodomain (biotinylated Her2/ERBB2, Sino Biological) (human) (UniProt P04626); experiment: BLI, […], antibody 6.25-50 nM, 1:1 fit
[11] = target: CD20 immobilized on a sensor tip (UniProt P11836); experiment: BLI, CD20 on tip; effective KD
[12] = target: CD20 immobilized on a sensor tip (UniProt P11836); experiment: BLI, […], antibody 6.25-50.0 nM, 1:1 fit
[13] = target: Receptor-binding domain of the SARS-CoV-2 spike protein (biotinylated, Acrobio system) (SARS-CoV-2) (UniProt P0DTC2); experiment: BLI, antigen on streptavidin tip
[14] = target: Receptor-binding domain of the SARS-CoV-2 spike protein (biotinylated, Acrobio system) (SARS-CoV-2) (UniProt P0DTC2); experiment: BLI, antigen on streptavidin tip, 1:1 fit
[15] = target: Receptor-binding domain of the SARS-CoV-2 spike protein (biotinylated, Acrobio system) (SARS-CoV-2) (UniProt P0DTC2); experiment: BLI, antigen on streptavidin tip; below the instrument's limit
CD20 on SU-DHL5 cells = CD20 on SU-DHL5 cells (UniProt P11836); experiment: flow cytometry on SU-DHL5 cells, muGFP signal, 10 nM antibody

**Q.** With “Trastuzumab(N30A/H91A)-HomoCC^(H) (antibody)” as the substance, how does the Kd [1] read?
**A.** The Kd was under 0.01 nM.

**Q.** What does the source list for Trastuzumab(N30A/H91A) (antibody)?
**A.** Kd [2]: 2.1 nM; kon [2]: 190000 M⁻¹ s⁻¹

**Q.** What does the source list for Obinutuzumab(Y101L) (antibody)?
**A.** Kd [3]: 30.4 nM; koff [4]: 0.01 s⁻¹; kon [4]: 330000 M⁻¹ s⁻¹

**Q.** How did the Kd [5] turn out when “SLy1(254-316)^(H)-Trastuzumab(N30A/H91A/Y100A)/HetFc-SDF-1α(8-67)^(H) (antibody)” was run?
**A.** Its Kd is 0.8 nM.

**Q.** What about the koff [5] of the same substance?
**A.** Its koff is 5.8e-05 s⁻¹.

**Q.** And the kon [5]?
**A.** Its kon is 71000 M⁻¹ s⁻¹.

**Q.** And the Kd [1]?
**A.** Its Kd is under 0.8 nM.

**Q.** With “SLy1(254-316)^(H)-Trastuzumab(N30A/H91A/Y100A)/HetFc (antibody)” as the substance, how does the Kd [6] read?
**A.** Its Kd is 373 nM.

**Q.** “Trastuzumab(N30A/H91A)-SDF-1α(8-67)^(H) (antibody)” was tested. Which kon [7] did it give?
**A.** Its kon is 310000 M⁻¹ s⁻¹.

**Q.** What about the kon [2] of the same substance?
**A.** Its kon is 290000 M⁻¹ s⁻¹.

**Q.** And the Kd [8]?
**A.** Its Kd is under 0.01 nM.

**Q.** Which Kd [9] does the source give for Trastuzumab(N30A/H91A/Y100A) (antibody) here?
**A.** Its Kd is 243 nM.

**Q.** Which Kd [1] does the source give for “Trastuzumab(N30A/H91A)-SDF-1α(8-67)^(L) (antibody)” here?
**A.** The Kd was under 0.01 nM.

**Q.** And the koff [10]?
**A.** Its koff is under 1e-07 s⁻¹.

**Q.** What about the kon [10] of the same substance?
**A.** Its kon is 189000 M⁻¹ s⁻¹.

**Q.** What does the source list for “SLy1(254-316)^(H)-Obinutuzumab(Y101L)/HetFc-SDF-1α(8-67)^(H) (antibody)”?
**A.** Kd [11]: 0.13 nM; koff [12]: 2.3e-05 s⁻¹; kon [12]: 180000 M⁻¹ s⁻¹

**Q.** glCV30-SDF-1α(8-67)^(H) (antibody) was tested. Which fold increase of binding avidity over glCV30 [13] did it give?
**A.** The fold increase of binding avidity over glCV30 was over 130 fold.

**Q.** And the kon [14]?
**A.** Its kon is 770000 M⁻¹ s⁻¹.

**Q.** And the Kd [15]?
**A.** The Kd was under 0.01 nM.

**Q.** How did the percent bound to SU-DHL5 cells at 10 nM (CD20 on SU-DHL5 cells) turn out when “SLy1(254-316)^(H)-Obinutuzumab(F101L)/HetFc-SDF-1α(8-67)^(H) labeled with muGFP at the C-terminus of the light chain (antibody)” was run?
**A.** Its percent bound to SU-DHL5 cells at 10 nM is 90%.
